Assay [1] deals with T1, SAP90/PSD-95 associated protein 3 (endogenous, mouse brain) (mouse (endogenous in striatum), UniProt Q6PFD5 1-977).
T1 sequence (looked up): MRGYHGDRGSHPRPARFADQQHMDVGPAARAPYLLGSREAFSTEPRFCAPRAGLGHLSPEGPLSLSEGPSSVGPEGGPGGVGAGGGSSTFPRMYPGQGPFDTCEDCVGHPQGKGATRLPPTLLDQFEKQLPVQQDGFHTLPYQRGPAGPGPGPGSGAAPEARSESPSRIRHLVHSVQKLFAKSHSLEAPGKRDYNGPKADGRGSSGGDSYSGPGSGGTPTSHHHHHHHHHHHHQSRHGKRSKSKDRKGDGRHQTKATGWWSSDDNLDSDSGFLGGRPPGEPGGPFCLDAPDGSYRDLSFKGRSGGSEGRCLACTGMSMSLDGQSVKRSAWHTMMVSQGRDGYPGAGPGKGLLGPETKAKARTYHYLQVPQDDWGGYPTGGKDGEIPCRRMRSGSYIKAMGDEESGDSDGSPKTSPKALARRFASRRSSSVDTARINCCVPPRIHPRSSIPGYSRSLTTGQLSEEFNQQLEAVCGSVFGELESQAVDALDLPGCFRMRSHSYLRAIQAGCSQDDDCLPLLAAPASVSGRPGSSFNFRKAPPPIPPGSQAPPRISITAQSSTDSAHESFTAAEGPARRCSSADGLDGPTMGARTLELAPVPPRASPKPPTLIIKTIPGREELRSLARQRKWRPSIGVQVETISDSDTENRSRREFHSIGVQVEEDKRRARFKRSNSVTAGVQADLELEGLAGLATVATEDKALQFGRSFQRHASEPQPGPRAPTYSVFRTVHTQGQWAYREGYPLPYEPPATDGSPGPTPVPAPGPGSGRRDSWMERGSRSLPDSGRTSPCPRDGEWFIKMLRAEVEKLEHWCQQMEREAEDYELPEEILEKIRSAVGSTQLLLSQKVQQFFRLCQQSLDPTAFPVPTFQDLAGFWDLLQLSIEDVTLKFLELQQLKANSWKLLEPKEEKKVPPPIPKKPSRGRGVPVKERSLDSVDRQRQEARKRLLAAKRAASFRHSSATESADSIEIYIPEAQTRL
Kind of assay: co-IP.

In assay [2] the target is HA-tagged spinophilin (human, full-length) (human, UniProt Q96SB3 1-817). Kind of assay: co-IP.
Sequence of HA-tagged spinophilin (human, full-length) (Q96SB3 whole entry): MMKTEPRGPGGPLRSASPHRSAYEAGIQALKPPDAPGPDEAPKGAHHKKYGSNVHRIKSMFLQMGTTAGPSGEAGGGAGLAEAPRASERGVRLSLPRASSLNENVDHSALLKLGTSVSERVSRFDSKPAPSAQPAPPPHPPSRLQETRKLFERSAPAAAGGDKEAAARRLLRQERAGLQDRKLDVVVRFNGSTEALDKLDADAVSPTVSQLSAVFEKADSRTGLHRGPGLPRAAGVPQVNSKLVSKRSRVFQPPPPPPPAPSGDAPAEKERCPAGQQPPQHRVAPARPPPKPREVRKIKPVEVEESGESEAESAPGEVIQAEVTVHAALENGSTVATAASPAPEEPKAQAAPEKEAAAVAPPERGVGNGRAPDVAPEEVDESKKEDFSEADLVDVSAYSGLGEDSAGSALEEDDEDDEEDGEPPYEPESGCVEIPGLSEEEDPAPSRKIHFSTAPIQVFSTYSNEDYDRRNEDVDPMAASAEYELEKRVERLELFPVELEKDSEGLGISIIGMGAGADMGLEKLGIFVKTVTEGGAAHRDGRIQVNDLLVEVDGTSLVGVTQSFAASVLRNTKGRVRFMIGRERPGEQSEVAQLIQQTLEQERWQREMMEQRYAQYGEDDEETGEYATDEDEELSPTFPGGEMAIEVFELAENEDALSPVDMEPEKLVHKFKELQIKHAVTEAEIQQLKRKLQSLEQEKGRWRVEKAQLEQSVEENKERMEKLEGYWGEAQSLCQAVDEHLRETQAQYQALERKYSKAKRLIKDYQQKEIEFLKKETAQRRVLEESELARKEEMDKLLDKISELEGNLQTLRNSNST

B1: spinophilin (endogenous, mouse brain) (natural protein)
chain: not shown
Take B1: the “fold greater association, WT over SAPAP3 KO” value in assay [1] was about 3 fold.

B2: V5-tagged SAPAP3 (rat) (natural protein, UniProt P97838 1-977, looked up)
chain: MRGYHGDRGSHPRPARFADQQHMDVGPAARAPYLLGSREAFSTEPRFCAPRAGLGHLSPEGPLSLSEGPSSVGPEGGPGGVGAGGSSSTFPRMYPGQGPFDTCEDCVGHPQGKGATRLLPTFLDQFEKQLPVQQDGFHTLPYQRGPAGPGPGPGSGAAPEARSESPSRIRHLVHSVQKLFAKSHSLEAPGKRDYNGPKAEGRSSSGGDSYSGPGSGGPPTSHHHHHHHHHHHHQSRHGKRSKSKDRKGDGRHQTKATGWWSSDDNLDSDSGFLGGRPPGEPGGPFCLDAPDGSYRDLSFKGRSGGSEGRCLACTGMSMSLDGQSVKRSAWHTMMVSQGRDGYPGAGPGKGLLGPETKAKARTYHYLQVPQDDWGGYPTGGKDGEIPCRRMRSGSYIKAMGDEESGDSDGSPKTSPKALARRFASRRSSSVDTARINCCVPPRIHPRSSIPGYSRSLTTGQLSEEFNQQLEAVCGSVFGELESQAVDALDLPGCFRMRSHSYLRAIQAGCSQDDDCLPLLAAPASVSGRPGSSFNFRKAPPPIPPGSQAPPRISITAQSSTDSAHESFTAAEGPARRCSSADGLDGPTMGARTLELAPVPPRASPKPPTLIIKTIPGREELRSLARQRKWRPSIGVQVETISDSDTENRSRREFHSIGVQVEEDKRRARFKRSNSVTAGVQADLELEGLAGLATVATEDKALQFGRPFQRQASEPQPGPRAPTYSVFRTVHTQGQWAYREGYPLPYEPPATDGSPGPPPVPAPGPGSGRRDSWMERGSRSLPDSGRTSPCPRDGEWFIKMLRAEVEKLEHWCQQMEREAEDYELPEEILEKIRSAVGSTQLLLSQKVQQFFRLCQQSLDPTAFPVPTFQDLAGFWDLLQLSIEDVTLKFLELQQLKANSWKLLEPKEEKKVPPPIPKKPSRGRGVPVKERSLDSVDRQRQEARKRLLAAKRAASFRHSSATESADSIEIYIPEAQTRL
As to B2, in assay [2], the “fold change of association, PKCbeta overexpressed and activated over control” value is about 3.3 fold; the “fold change of association, mGluR5 overexpressed over control” value was about 12 fold.

The values are drawn from article PMC6294707 (Molecular and cellular neurosciences, 2018).
